Reference: the supplement of paper PMC12764529
± gives the half width of the 95% confidence interval.

What was measured:
[1] = folding stability dG unfold from chymotrypsin proteolysis; higher = more stable
Experimental: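 Folding stability of de novo designed mini-proteins (<80 aa, no Cys; designed by TrROS, TrMRF, ProteinMPNN and the joint model) was measured by cDNA display proteolysis with trypsin and chymotrypsin. Each protease was used at 11 concentrations in a threefold dilution series plus a no-protease condition. K50 was inferred by Bayesian fitting of sequencing counts, and dG unfold was derived against a sequence-predicted unfolded-state K50 (Tsuboyama et al. method). Sequences shown include variable-length N-terminal GS-type padding (SAGGSAGG...) inside a display construct carrying a PA tag. Rows were kept only if the AF2 dimer inter-PAE was >15, to exclude likely homo-oligomers.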

[2] = folding stability dG unfold (combined trypsin and chymotrypsin); higher = more stable
Summary of the method: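 Unfolding free energy was derived, per protease or combined, by relating Bayesian-fitted K50 values from sequencing counts to a sequence-predicted unfolded-state K50 and a shared folded-state K50. The underlying digests exposed cysteine-free mini-proteins under 80 residues, in a PA-tagged cDNA display construct, to trypsin and chymotrypsin at 11 threefold-diluted concentrations and to a no-protease condition. A filter kept only designs with AlphaFold2 dimer inter-PAE above 15.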

Sequence	folding stability dG unfold [1] [kcal/mol]	folding stability dG unfold [2] [kcal/mol]
SAGGSAGGMTARKTYEVEVPADDPDALADLAFDLPAGDTVYFRTPGPDLRAVVTDDVPVVEPAGSAGGSAGG [r6_550_TrMRF]	0.0243 ± 0.18	< -1
SAGGSAGGMTIPLPGSVEEIQELLGGPIKEYTEEAPGSGTLTLPNGTPITVERESPELLKEVLRSAGGSAGG [r6_19_JUSTAS]	-0.0581 ± 0.16	-0.593 ± 0.37
SAGGSAGGMTPEEIRDALAAKLRAADPDVEVRPVRQEGDEVVVVVTRPATGERREVRVPADVPLSAGGSAGG [r6_446_JUSTAS]	0.406 ± 0.19	-0.0965 ± 0.18
SAGGSAGGNPDTPVLTRKTSETFNIAPGEVVKFPDSSVVTPTEDGTYTIDKTITYNGPPDKPLTSAGGSAGG [r6_635_JUSTAS]	0.345 ± 0.13	-0.279 ± 0.23
SAGGSAGGSAAEPPPPATIEVLVLNEDGYVYRAEIRVNEDGEITIEVEKIPVKPGESLEELSAGGSAGGSAG [r3_437_TrROS_Hall]	4 ± 0.23	3.79 ± 0.35
SAGGSAGGSAAPEALPPRLVVPRPVLIVDKAPLEEVEVEELRKAAEEFARAVPDAVVLVDEESAGGSAGGSA [r18_499_TrMRF]	0.788 ± 0.12	0.0223 ± 0.23
SAGGSAGGSAGAPSAPRSVPEVRLLNIDIPASADDPESVELARRLARAALENDAVVVINESAGGSAGGSAGG [r11_519_TrMRF]	0.826 ± 0.11	0.268 ± 0.11
SAGGSAGGSAGAPVEVVITFESPTSRTTRTFPADLPEAEVERLAAALRAAHPEPVRVEPRSAGGSAGGSAGG [r11_515_JUSTAS]	-0.981 ± 0.48	< -1
SAGGSAGGSAGASSLTLEELLKLHPGTVVRKERVELVEGKLVIDLVVEKVDPDTDKLTPESAGGSAGGSAGG [r11_20_JUSTAS]	0.893 ± 0.043	0.409 ± 0.14
SAGGSAGGSAGAVTVTVDAAPDPLPDREYVVVTVERTLPSGEVLAESRVFDRAEEALEAASAGGSAGGSAGG [r11_792_TrMRF]	0.432 ± 0.14	-0.209 ± 0.26
SAGGSAGGSAGAWTDPDGNPYEVKEATVASLGPENPIVLVRFSENGELRLVPLEQALADLSAGGSAGGSAGG [r17_517_TrMRF]	0.558 ± 0.16	-0.0575 ± 0.25
SAGGSAGGSAGDPNYVQVTIRMPMERRNPEDGKWERNPMEITIPFKSKDQADKIAEEIGISAGGSAGGSAGG [r11_984_TrROS]	-0.0109 ± 0.18	-0.375 ± 0.23
SAGGSAGGSAGEAAIEAAIAANSPDKDATVALPGGETVRLKFTRDPKVPTLLSLDVEREPPRSAGGSAGGSA [r18_202_JUSTAS]	-0.61 ± 0.29	< -1
SAGGSAGGSAGEIVIDVEPNMTVEEVKKRIKALAEELKKEKGLEIKKIEIKEGMSVEELLSAGGSAGGSAGG [r17_43_TrROS_Hall]	0.225 ± 0.077	-0.00172 ± 0.13
SAGGSAGGSAGEVLIVAPAALLKEAIGPGVEVLAVDDDVVVVRVPVPPVPLTDANGNPLPSAGGSAGGSAGG [r11_828_TrMRF]	0.598 ± 0.047	-0.15 ± 0.3
SAGGSAGGSAGGAKPVTFTFPDGTKAVSVEETPTSVVLYDPGPGALYVLDKETKTITPASAGGSAGGSAGGS [r10_289_TrMRF]	-0.512 ± 0.29	-0.72 ± 0.34
SAGGSAGGSAGGDPIRVDDIEPNPDRLEIDIRNFGNGNQKKHTIPPGSPPKIKPGDYIRSAGGSAGGSAGGS [r10_834_TrROS]	0.857 ± 0.12	0.229 ± 0.26
SAGGSAGGSAGGEARDNGVPTIEIPIPPEFKKGMPAEQMVDQLAKQLPPGVKDIHIEPPPSAGGSAGGSAGG [r7_487_TrROS]	0.744 ± 0.035	0.376 ± 0.13
SAGGSAGGSAGGEVITVKRPDGTPFDVTAVLSEDPVVPLLTVEATDDGPVVTLDVPASLLSAGGSAGGSAGG [r7_236_JUSTAS]	0.207 ± 0.16	-0.172 ± 0.26
SAGGSAGGSAGGEVPADAVIEERLEVTDVSTGEKRRFRRTVTVEVDPDGSLRVRTEVEEESAGGSAGGSAGG [r7_19_JUSTAS]	-0.184 ± 0.63	-0.215 ± 0.3
SAGGSAGGSAGGGATVTETRTEFVPPTGIVRVESVVTYPDGSTRRTSSVVVVERPGAQPSAGGSAGGSAGGS [r10_290_JUSTAS]	0.872 ± 0.03	0.386 ± 0.13

Sequence	folding stability dG unfold [1] [kcal/mol]	folding stability dG unfold [2] [kcal/mol]
SAGGSAGGSAGGGMKTKTTISTHPGPGGKTRVLVEVDPKKGLLTWRDPSDPSATTVVPLGSAGGSAGGSAGG [r7_992_JUSTAS]	0.511 ± 0.23	-0.446 ± 0.41
SAGGSAGGSAGGGMPVPPVEVVEVSEEVRPLPPSSDKTVRRVTRTLPDGSTLTFEEPPESAGGSAGGSAGGS [r10_945_JUSTAS]	0.459 ± 0.04	0.064 ± 0.062
SAGGSAGGSAGGGPMIYTEETVEEVVKVGEKSIKRTVTTTKVEVPGKPGVVLETKVDWGGSAGGSAGGSAGG [r7_795_JUSTAS]	0.837 ± 0.024	0.312 ± 0.092
SAGGSAGGSAGGGSMDELPEIEEIAYVTDPATGAVTTVPASQVPEVLASTNNTVTIRPVSAGGSAGGSAGGS [r10_1121_JUSTAS]	0.363 ± 0.073	< -1
SAGGSAGGSAGGKIEIDNIERFRPPNGNRYYKMTIRVEGNGKEREIWAPADDADNFKIESAGGSAGGSAGGS [r10_326_TrROS]	-0.0266 ± 0.22	-0.474 ± 0.25
SAGGSAGGSAGGKKININVPAEEMTEEEIKKLIKNLPPDMPIEIEIQPVPPPPPPPPGDKSAGGSAGGSAGG [r7_979_TrROS]	-0.851 ± 0.63	< -1
SAGGSAGGSAGGMIIVPVVTEETVDVTFRKTPEGVWEPVGPQTITTTTTLTIDPTKGRLSAGGSAGGSAGGS [r10_93_JUSTAS]	0.135 ± 0.43	-0.443 ± 0.37
SAGGSAGGSAGGMKPGEVVLIYVERSYYDPEKGPLTPRNARYELLNYKPLPLKPKDPKVLSAGGSAGGSAGG [r7_522_JUSTAS]	-0.3 ± 0.26	-0.516 ± 0.16
SAGGSAGGSAGGMKPQPIKVTVERHFPDGTVELEELVFPSPEEVEKFLKENPDWTVVEVESAGGSAGGSAGG [r11_802_JUSTAS]	2.6 ± 0.081	3.4 ± 0.22
SAGGSAGGSAGGMPPVEIVEIVNSPGKNPVIVLDPATGEPRLIEVPPDVTLTPEMARRESAGGSAGGSAGGS [r10_844_JUSTAS]	0.838 ± 0.066	0.0501 ± 0.2
SAGGSAGGSAGGMSTVVEESFYPEERVLRRTTTTVEEEGVTTEPSVYTVEPGDPNVLTPASAGGSAGGSAGG [r7_866_JUSTAS]	0.0822 ± 0.22	-0.434 ± 0.25
SAGGSAGGSAGGMVRTLDLPNLSEEEIEEIIKKNPNEVYEITFRPPNGPEVTKTIPTHHSAGGSAGGSAGGS [r10_408_JUSTAS]	0.84 ± 0.081	0.524 ± 0.18
SAGGSAGGSAGGMYIPGDLVEWVSPVGDKWRVGLIGKPQTFDWKDIPAPSNENIVFVPGSAGGSAGGSAGGS [r10_665_TrMRF]	-0.392 ± 0.29	< -1
SAGGSAGGSAGGNPVYRTRAEILETVPVGEDETVWLPGTAAPVSPSTTVLLARVYSVPADSAGGSAGGSAGG [r11_793_TrMRF]	-0.355 ± 0.27	< -1
SAGGSAGGSAGGPFFMPEQKGTIPADELQKKGGNLTSVEIKVRPWMMELEIEIVYPPGDKSAGGSAGGSAGG [r7_116_TrROS]	1.14 ± 0.36	0.0937 ± 0.51
SAGGSAGGSAGGPIEEILASLPPNATVKVSRVVKLTTPDGSLSSIEVEEVITVKKPEKALSAGGSAGGSAGG [r11_347_JUSTAS]	0.655 ± 0.02	0.287 ± 0.13
SAGGSAGGSAGGPIVLKFKTKEEAEEFAKKLKKEIPNIKEVKIEEDPETGEYYLVVVNDSAGGSAGGSAGGS [r10_544_TrMRF]	4.86 ± 0.17	5 ± 0.28
SAGGSAGGSAGGPMYTVHTETFTTLEPGAGKRIVTTRTTNPATGATATTTTVIPLEPEALSAGGSAGGSAGG [r17_153_JUSTAS]	-0.555 ± 0.39	< -1
SAGGSAGGSAGGPPVLTVTRYPPTPYLTVTLPGGRPVVLPVHPDTPPSDVLRLARELTASAGGSAGGSAGGS [r10_33_TrMRF]	-0.163 ± 0.26	< -1
SAGGSAGGSAGGPVFDMSNFEEVKEAAEKAGIDVVEEDPEKNTIYVDPSKPELIKEAIQKSAGGSAGGSAGG [r7_285_JUSTAS]	0.874 ± 0.14	0.205 ± 0.4
SAGGSAGGSAGGRPIPLDEFRDMPPNWKIEFNNGKEVEIPADDIKKPIDKGDTVRIEPVPSAGGSAGGSAGG [r7_643_TrROS]	0.705 ± 0.024	0.188 ± 0.098
